Experimental data taken from patent CN114106180A (CHINESE PHARMACOLOGY UNIV, dated 2022).

B1: CD24单克隆抗体cG7 (antibody, human IgG1, V domains shown)
VH: QVKLEESGGGLVQPGGSLKISCAASGFDFSRYWMSWVRQAPGKGLEWIGEINPDSSTINYTPSLRDKFIISRDNAKNTLYLQMSKVRYEDTSLYYCARQGDYWGQGTSVTVSS
VL: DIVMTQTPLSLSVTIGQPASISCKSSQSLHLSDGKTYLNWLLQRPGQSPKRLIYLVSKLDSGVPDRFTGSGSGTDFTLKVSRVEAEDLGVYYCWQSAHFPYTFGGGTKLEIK
notes: also called 亲本CD24单克隆抗体cG7; CD24嵌合抗体
B2: 带有工程化半胱氨酸的CD24单克隆抗体cG7SV (antibody, V domains shown)
VH: QVKLEESGGGLVQPGGSLKISCAASGFDFSRYWMSWVRQAPGKGLEWIGEINPDSSTINYTPSLRDKFIISRDNAKNTLYLQMSKVRYEDTSLYYCARQGDYWGQGTSVTVSS
VL: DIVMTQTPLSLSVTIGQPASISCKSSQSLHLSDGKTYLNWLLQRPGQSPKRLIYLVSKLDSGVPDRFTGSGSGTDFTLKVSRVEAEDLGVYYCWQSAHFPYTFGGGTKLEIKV
notes: also called 带有工程化半胱氨酸的CD24嵌合抗体

Biological target: T1, 重组人CD24蛋白 (human, UniProt P25063 27-59, limits assumed)
T1 construct: also called 重组人CD24抗原
T1 chain (looked up): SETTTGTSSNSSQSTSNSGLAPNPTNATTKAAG
Experiment: indirect ELISA, recombinant human CD24 coated at 0.5 ug/mL, antibody 0.08-2.5 nM, goat anti-human IgG detection

| EC50 [nM] | Binder |
| --- | --- |
| 0.152 | B1 |
| 0.153 | B2 |
